Broadly, the Vmax is the rate approached at saturating substrate.

In paper PMC6210743, “Starch Synthesis in Ostreococcus tauri: The Starch-Binding Domains of Starch Synthase III-B Are Essential for Catalytic Activity” (Frontiers in Plant Science, 2018) one finds K0.5 and Vmax data, which are given here for seven proteins.

Substrate in data set [1]: Nc1ncnc2c1ncn2[C@@H]1O[C@H](COP(=O)(O)OP(=O)(O)O[C@H]2O[C@H](CO)[C@@H](O)[C@H](O)[C@H]2O)[C@@H](O)[C@H]1O
Nature of the data set: Pi release by alkaline phosphatase from ADP, Malachite Green assay. The conditions noted are these: 2 mg/ml glycogen as acceptor, 50 mM BICINE pH 8.0, 30°C. The class given is biochemical, Ostreococcus tauri. The text has this: Pi release by alkaline phosphatase from ADP, Malachite Green assay on OsttaSSIII-B

Substrate in data set [2]: Nc1ncnc2c1ncn2[C@@H]1O[C@H](COP(=O)(O)OP(=O)(O)O[C@H]2O[C@H](CO)[C@@H](O)[C@H](O)[C@H]2O)[C@@H](O)[C@H]1O
The data set is described as above. In kind it is biochemical, Ostreococcus tauri. The conditions noted are these: 2 mg/ml glycogen as acceptor, 50 mM BICINE pH 8.0, 30°C, nH 0.57. The source says:
Pi release by alkaline phosphatase from ADP, Malachite Green assay on OsttaSSIII-B CD

Changes are numbered by the printed parent chain. Names and notes keep the numbering of the source.

B1: OsttaSSIII-B (Ostreococcus tauri) (protein)
chain: ASVETQLDGTDHPRVFTVPATPVAGGALRVFADVERADALRSASGWKLIGGYNAWRVGEFTKDMIKVKGTSWVYADVNVDERAFSMDFVFKGDGEAYEKDEGQDFSLTVDFGPTPEEFEEMLKVIEMENKARDEANAFIDGQMARARESGAGASIEKYGRVICKTASGKPGVAGSTERVMWNKAYNPIGGDTDKLVLHVGFNGWCAGVEAKFDLVRATGEIKDENNDWWVADVPLRADAYLLDFVVSDVEESAWDNNEQANFTLAVETSDEEWAVLRELKFEEIRAMAFKKELAEKERKERRAKADAEAKAKAIEVGLKQQSYIIHTEPKVPQVGKPLKVFYNKNNTNLSWSDEIYMTGGFNRWSHEAAIEPVKMTPPGAGEEFFTVTVPRVPTDAWMVDFVFSSGVGEGAQYDNKSGRDYHLPTRGSTASKPPLHVCHIAVEMAPIAKVGGLADVVTAIGRAIQDNGHLVEIILPKYQFFNNSVLLGGKEYETHFDWAGTTIRVEKCKVEGLQCFFIEPQNNMFQTDSVYGRNDDAHRFNFFCNAALEFLVRTARQPDILHCHDWSSAEVARAYWEHYHHNGLTKPKVAFTIHNMNYGQAKLGEAVHHSQVATTVSPSYAGEVRGSPVIGNNGHKFTGVRNGIDPEIWDPETDIFVPVKYNADNQEEGKAAARAELRQRAGMTGWDDKPIVGVVSRLTAQKGVHLIKHAAHHTLSRGGQFVLLGSAPDPKIQGEFNGLANQLGGEDTGFFFAFDEPLSHLMYAGCDVILVPSMFEPCGLTQMISMRYGAVPVVRATGGLRDTVFDVDNEKERAAWEVGGSTDWKTDGDMTNGFSFEGTDEGSLNYALDRCLDAFYNDREWFRSLQKRVMLQDWSWNRPANDYEELYYKMIGR
Turning to B1, in data set [1] (nH 1.16), the K0.5 is recorded as 0.09 ± 0.02 mM and the maximal velocity (Vmax) turned out to be 1.65 µmol/min/mg.

B2: OsttaSSIII-B (Ostreococcus tauri; Y147A) (protein)
chain: B1 chain with Y97A
As for B2, in data set [1] (nH 0.78), the K0.5 amounted to 0.07 ± 0.01 mM and the maximal velocity (Vmax) was found to be 1.1 µmol/min/mg.

B3: OsttaSSIII-B (Ostreococcus tauri; W304A) (protein)
chain: B1 chain with W254A
In the case of B3, in data set [1] (nH 0.80), the K0.5 came to 0.15 ± 0.03 mM and the Vmax worked out at 0.31 µmol/min/mg.

B4: OsttaSSIII-B (Ostreococcus tauri; W279A) (protein)
chain: B1 chain with W229A
On to B4, for which, in data set [1] (nH 0.88), the K0.5 is on record as 0.38 ± 0.11 mM and the Vmax stood at 0.42 µmol/min/mg.

B5: OsttaSSIII-B (Ostreococcus tauri; W122A/Y124A) (protein)
chain: B1 chain with W72A, Y74A
As to B5, in data set [1] (nH 0.94), the K0.5 is 0.11 ± 0.01 mM and the Vmax amounted to 0.57 µmol/min/mg.

B6: OsttaSSIII-B (Ostreococcus tauri; F138A) (protein)
chain: B1 chain with F88A
B6: in data set [1] (nH 1.06), the K0.5 turned out to be 0.07 ± 0.02 mM and the Vmax was 0.23 µmol/min/mg.

B7: OsttaSSIII-B CD (Ostreococcus tauri) (protein)
chain: LHVCHIAVEMAPIAKVGGLADVVTAIGRAIQDNGHLVEIILPKYQFFNNSVLLGGKEYETHFDWAGTTIRVEKCKVEGLQCFFIEPQNNMFQTDSVYGRNDDAHRFNFFCNAALEFLVRTARQPDILHCHDWSSAEVARAYWEHYHHNGLTKPKVAFTIHNMNYGQAKLGEAVHHSQVATTVSPSYAGEVRGSPVIGNNGHKFTGVRNGIDPEIWDPETDIFVPVKYNADNQEEGKAAARAELRQRAGMTGWDDKPIVGVVSRLTAQKGVHLIKHAAHHTLSRGGQFVLLGSAPDPKIQGEFNGLANQLGGEDTGFFFAFDEPLSHLMYAGCDVILVPSMFEPCGLTQMISMRYGAVPVVRATGGLRDTVFDVDNEKERAAWEVGGSTDWKTDGDMTNGFSFEGTDEGSLNYALDRCLDAFYNDREWFRSLQKRVMLQDWSWNRPANDYEELYYKMIGR
Consider B7, for which, in data set [2], the K0.5 was 0.12 ± 0.04 mM and the maximal velocity (Vmax) was determined as 0.76 µmol/min/mg.
